Laboratory results taken from the RNAGym collection of RNA variant scans (doi:10.7554/elife.80360).

B1: Hammerhead Ribozyme (parent)
chain: ACCGGAUGUGCUUUCCGGUCUGAUGAGUCCGUGAGGACGAAACAG

Variants of: B1
Assay: self-cleavage, relative activity (ratio to wild type); higher = more cleavage; co-transcriptional

Variant | self-cleavage
ACCGGAUGUGCUUUCCGGUUUGAUGAGUCUGUGAGGACGAAACAG | 0.594
ACGGGAUGUGCUUUCCGGUCUGAUGAGUCUGUGAGGACGAAACAG | 0.636
ACCGGAUGUGCUUACCGGUCUGAUGAGUCCGUGAGGACGCAACAG | 0.491
ACCGGAUGUGCUUACCGGUCUGAUGAGUCCGUGAGGAGGAAACAG | 0.574
ACCGGCUGUGCUUUCCGGUCUGAUGAGUCCGUGAGGACGAAAUAG | 0.429
ACCGGAUGUGCUUUCCGGUCUGAUGGGGCCGUGAGGACGAAACAG | 0.335
ACCGGAAGUGCUUUCCGGUCUGAUGAGUCCGUGAGGACGAAAUAG | 0.302
ACCGGAUGUGCUUUCCGAUCUGAUGAGUCAGUGAGGACGAAACAG | 0.607
GCCGGAUGUGCUUUCCGGUGUGAUGAGUCCGUGAGGACGAAACAG | 0.358
ACUGGAUGUGCUUUCCGGUCUGAGGAGUCCGUGAGGACGAAACAG | 0.945
ACCGGAUGUGCUUUCCGCUCUGUUGAGUCCGUGAGGACGAAACAG | 0.32
ACCGGAUGUGCUUUCCGGUCUGAUGAGUACGUGAGGGCGAAACAG | 0.692
ACCGGAUGAGCUUUCCGGUCUUAUGAGUCCGUGAGGACGAAACAG | 0.311
ACCGGAUGUGCUUCCCGGACUGAUGAGUCCGUGAGGACGAAACAG | 0.362
ACCGGACGUGCUUUCCGGUCUGAUGAGUCCGUGAGGACGACACAG | 0.34
ACCGGAUGUGCUUUCCGGUCUGACGAGCCCGUGAGGACGAAACAG | 1.06
ACCGGAUGUGCUUUCCGUUCUGAUGAGUCGGUGAGGACGAAACAG | 0.493
ACCGGAUGUGCUUUCAGGUCUGAUGAGUCCGUGAGGACGAAACUG | 0.5
ACCGGAUGUGCUUUCCGGUCUGCUGAAUCCGUGAGGACGAAACAG | 0.341
ACCGAAUGUGCUUUCCGGUCUGAUGAGCCCGUGAGGACGAAACAG | 0.654
ACCGGAUGCGCUUUCCGGUCUGAUGAGUCCGUGCGGACGAAACAG | 0.94
ACCGGAUGUGCUUUCCGGUCAGCUGAGUCCGUGAGGACGAAACAG | 0.474
ACCGGAUGCGCUUUCCGGUCCGAUGAGUCCGUGAGGACGAAACAG | 0.718

Variant | self-cleavage
ACCGGAUGUGCUUUCCGGUAUGAUGAGUCAGUGAGGACGAAACAG | 0.286
ACCGGAUGUGCUUUCCGGUCUGAUGAGUCCGGGAGGACCAAACAG | 0.497
ACCGGAUGUGCUUUCCGGUCUGACGAGUCCGUGAGGACGAUACAG | 0.408
ACCGGAUGUGCUUUCCGGUCUGAUGAGUCCAUGAGGACGAAACUG | 0.861
ACCGGAUGUGCUGUCCGGUCUGAUGAGUCCGGGAGGACGAAACAG | 0.74
ACCGGAUGUGCUGUCCGGUCUGAUGAGUCCGCGAGGACGAAACAG | 0.986
GCCGGAUGUGCUUUCCGGUCUGAUGAGUCCGUGAGGACGAAACAU | 1.13
ACCGGAUGUGCUUUCCGGUUUGAUGAGUCCGUGAGGACGAAACCG | 0.376
ACCGGAUGUGCUUACCGGUCUGAUGAGUCCGGGAGGACGAAACAG | 0.989
ACCGGAUGUGCUUUCCGGUCUGAUGAGUCCGUCAGGCCGAAACAG | 0.745
ACCGGAUGUGCUUUCCGGUCUGAUGAUUCCGUGAGGACGAAACCG | 0.305
ACCGUAUGUGCUUUCCGGCCUGAUGAGUCCGUGAGGACGAAACAG | 0.396
ACCGGAUGUGGUUUCCGGUCUGAUGAGUCCGUGAGGACAAAACAG | 0.253
ACCGGAUGUGCUUUCCGGUCUGAAGAGUCCGUGAGGACGAAUCAG | 0.354
ACCGGAUGUGCUUUCCGGUCUGAUGAGUCCGUAAGGAAGAAACAG | 0.608
ACCGGAUGUGCUUUCCGGUCUAAUGAGUCCGUCAGGACGAAACAG | 0.317
ACCGGAUGUGCUUGCCGGUCUGAUGAGUCCGUGAGGAGGAAACAG | 0.603
UCCGGAGGUGCUUUCCGGUCUGAUGAGUCCGUGAGGACGAAACAG | 0.603
ACCUGAUGUGCUUUCCGGUCUGAUCAGUCCGUGAGGACGAAACAG | 0.339
ACCGGAUGUGCUUUCCGGUCUUAUGCGUCCGUGAGGACGAAACAG | 0.345
ACCGGAUGUGUUUUCCGGUCUGAUGAGUCCGAGAGGACGAAACAG | 0.889
ACCGGAUGUGUUUUCCGGUCUGAUGAGUCCGUGAGGAGGAAACAG | 0.611
ACCGGAUGUGCUUUCCGCUCUGAUGAGUCCGUGAGGCCGAAACAG | 0.373

Variant | self-cleavage
ACCGGAUGUGCUUUCCGGUCUGAUGAGUCCGAGAGGACGAAACAU | 0.707
ACCGGAUGUGCUUUCCGGUCUGAUGAACCCGUGAGGACGAAACAG | 0.645
ACCAGAUGUGCUUUCCGGUCUGAUGAGUCCGUGAAGACGAAACAG | 0.386
ACCGGAUGUGCGUUCCCGUCUGAUGAGUCCGUGAGGACGAAACAG | 0.436
ACCGCCUGUGCUUUCCGGUCUGAUGAGUCCGUGAGGACGAAACAG | 0.423
ACCGGAUGUGCUUUCCGGUCUCAUGAGGCCGUGAGGACGAAACAG | 0.293
ACCCGAUGUGCUUUCCGGUCUGAUGAGUCCGUGAGUACGAAACAG | 0.281
ACCCGAUGUGCUUUCCGGUCUGAUGAGUCUGUGAGGACGAAACAG | 0.703
ACCGGAUGUGCUCUCCGGUCUGAUGUGUCCGUGAGGACGAAACAG | 0.622
ACCGGAUGUGCUUUCCGGUCUGAUGAGUCCCUGAGGACGGAACAG | 0.302
ACCGGAUGUGCUUUCCGGUCUGAUGAGUCCCUGAGGACGUAACAG | 0.367
ACCGGAUGUGCUUUUCGAUCUGAUGAGUCCGUGAGGACGAAACAG | 0.554
ACGGGAUGUGCUUUCCGGUCUGAAGAGUCCGUGAGGACGAAACAG | 0.511
ACCGGAUCUGCUUUCGGGUCUGAUGAGUCCGUGAGGACGAAACAG | 0.511
UCCGGAUGUGCUUUCAGGUCUGAUGAGUCCGUGAGGACGAAACAG | 0.419
ACCGGAUGUGCUUUCCGGUUUGAUGAGUCCGCGAGGACGAAACAG | 0.395
ACCGGAUGUGCUUUCCGGUCUGAUGAGUCCGGGAGGACGAAACAC | 0.712
ACCGGCUGUACUUUCCGGUCUGAUGAGUCCGUGAGGACGAAACAG | 0.68
ACCGGAUGUGCUUUCCGGCCUGAUGAGUCCGUGUGGACGAAACAG | 0.339
ACCGGAUGUGCUUUCCGGGCUCAUGAGUCCGUGAGGACGAAACAG | 0.308
AUCGGAUGUGCUUUCCGGUCUGAUGAGUCCGUGAGGACGAAAUAG | 0.441
ACCGGAUGUGCUUUCCGGUCGGAUGAGUCGGUGAGGACGAAACAG | 0.373
ACCGGAUGUGCUCUCCGGACUGAUGAGUCCGUGAGGACGAAACAG | 0.351

Variant | self-cleavage
AUUGGAUGUGCUUUCCGGUCUGAUGAGUCCGUGAGGACGAAACAG | 0.588
ACCGGAUGUGCUUUCCGGUCUGAUGAGUCCUUGAGGACGAAACGG | 1.64
ACCGGAUGUCCUUUCCGGUCUGAUGAGUCGGUGAGGACGAAACAG | 0.675
ACCGGAUGUGCUUUCCGGUCUGAUGAGUCCGUGAGGACGGAAUAG | 0.268
ACCUUAUGUGCUUUCCGGUCUGAUGAGUCCGUGAGGACGAAACAG | 0.359
ACCGGAUGUGCUUACCGGUCUGAUGAGUCAGUGAGGACGAAACAG | 0.838
ACCGGAUGUGAUAUCCGGUCUGAUGAGUCCGUGAGGACGAAACAG | 1.46
ACCGAAUGUGCUUUCCGGUCUGAUGAGUCCGUGAGGUCGAAACAG | 0.603
ACCGGAUGUGCUUUCCGGUCUGAUGAAUCCGUCAGGACGAAACAG | 0.675
ACCGGAUGUGCUUUCCUGUCUGAUGAUUCCGUGAGGACGAAACAG | 0.513
ACCGGAUGUGCUUUCCGGUCUGAUGAGUCCGGGACGACGAAACAG | 0.626
ACCGGAUGUGCUGUCCGGUCUGAUGAGUCCGUGAGGACGAAACAA | 0.719
ACCGGCUGUGCUUUCCGGUCUGAUGAGUCCGUGAGGAAGAAACAG | 0.469
ACCGGAUGUGCUUUCCGGCCUUAUGAGUCCGUGAGGACGAAACAG | 0.267
ACCGGAUGUGCUUUCCGGUUUGUUGAGUCCGUGAGGACGAAACAG | 0.279
ACCGGACGUGCUUUGCGGUCUGAUGAGUCCGUGAGGACGAAACAG | 0.667
ACCGUAUGUGCUUUCCGGUCUGAUUAGUCCGUGAGGACGAAACAG | 0.355
ACCGGAUGUGCUUUCCGGUCUGAUGCGUCCGUGAGGACGAAAGAG | 0.31
ACCGCAUGUGCUUUCCGGUCUGAUGAGCCCGUGAGGACGAAACAG | 0.33
ACCGGAUGUGCUUUCCGGUCUGAUGUGUCCUUGAGGACGAAACAG | 0.748
ACCGGAUGUGAUUUCCGGUCUGAUGAGUCCGUGAGCACGAAACAG | 0.911
ACCGGAUGUACUUUCCGGUCUGGUGAGUCCGUGAGGACGAAACAG | 0.34
ACCGGAUGUACUUUCCGGUCUGCUGAGUCCGUGAGGACGAAACAG | 0.375

Variant | self-cleavage
ACCAGAUGUACUUUCCGGUCUGAUGAGUCCGUGAGGACGAAACAG | 0.866
ACCGGAUGGUCUUUCCGGUCUGAUGAGUCCGUGAGGACGAAACAG | 1.05
ACCGGAUGGACUUUCCGGUCUGAUGAGUCCGUGAGGACGAAACAG | 0.891
ACCGGAUGUGCUUUCCGGUCUGAUGUGUCCGUGAGCACGAAACAG | 0.265
ACCGGAUGUGCUUUCCGGUCUGACGAGUCCGUGAGGAUGAAACAG | 0.901
ACUGGAUGUGCUUUCCGGUCUGAUGAGUCCGUGAGGACGAAAGAG | 0.385
UCCGGAUGUGCUUUCCGGUCUGAUGAGUCCGUGAGGACGAAAUAG | 0.413
ACCGGAUGUGCUUUCCGGUCUGAUGAGUCCGUGAGGACGUAACCG | 0.474
ACCGGAUGUGCUUUCCGGUCUGAUGAGUCCGUGAGGACGUAACGG | 0.649
ACCGGAUGUGCUUUCCGGUCGGAUGAGUCCGUGAGGACGAAACAC | 0.278
ACCGUAUGUGCUUUCCGGUCUGAUGAGUCUGUGAGGACGAAACAG | 0.967
ACCGGAUGUGCUUUCCGGUCUGAUGAGUCCGUGAGGCCGAAACUG | 0.368
ACCGGGUGUGCGUUCCGGUCUGAUGAGUCCGUGAGGACGAAACAG | 0.802
ACCGGAUGUGCUUUCCGGUCUGAUGAGGCCGUGAGGACGACACAG | 0.348
ACCGGAUGUGCUUUCCGGUCUGAUGAGUCCGCGAGGAAGAAACAG | 0.691
ACCGGAUGUGCUUUCCGGUCUGAUGAGUUCGUGAGGACGAAGCAG | 0.283
ACCGGAUGUGUUUUCUGGUCUGAUGAGUCCGUGAGGACGAAACAG | 0.817
ACCGGAUGUGCUUUCCGGUCUGACGAGUCCGUGAUGACGAAACAG | 0.655
ACCGGAUAUGCUUUCCGGUCUGAUGAGUCCGUGGGGACGAAACAG | 1.06
ACCGGAUGUGCUUUCCGGUCUUAUGAGUCCGUGAUGACGAAACAG | 0.366
ACCGGAUGUGCUUUCCGGUUUGAUGAGUCCGUGAGGACGCAACAG | 0.407
ACCGGAUGUGCUUUCCGGUCUGAUGAGUCCGUGAGGUCGACACAG | 0.34
